The target in this assay is untagged full-length RAC1 Q61L (UniProt P63000 1-192, Q61L). Briefly: SPR. (In general: In SPR one partner is held on a chip, and binding of the other changes the refractive index at the surface.)

B1: MBP-tagged full-length CYRI-B (natural protein)
chain: MGNLLKVLTCTDLEQGPNFFLDFENAQPTESEKEIYNQVNVVLKDAEGILEDLQSYRGAGHEIREAIQHPADEKLQEKAWGAVVPLVGKLKKFYEFSQRLEAALRGLLGALTSTPYSPTQHLEREQALAKQFAEILHFTLRFDELKMTNPAIQNDFSYYRRTLSRMRINNVPAEGENEVNNELANRMSLFYAEATPMLKTLSDATTKFVSENKNLPIENTTDCLSTMASVCRVMLETPEYRSRFTNEETVSFCLRVMVGVIILYDHVHPVGAFAKTSKIDMKGCIKVLKDQPPNSVEGLLNALRYTTKHLNDETTSKQIRSMLQ
B1 had a Kd of 18.3 µM. In other words, the double-digit micromolar range.

A word on the Kd: it is the equilibrium constant for the complex coming apart.
